The values below come from PMC11218781, “The heat shock factor 20-HSF4-cellulose synthase A2 module regulates heat stress tolerance in maize”.

Data set [1] addresses T1, ZmHSF20 (Zea mays, UniProt K7U5Y9 1-318). Put plainly: EMSA; unlabeled probe competes; EMSA/Gel-Shift buffer (Beyotime GS009 kit), 4 °C, 1 h; salt and pH not stated. The conditions noted are these: protein: recombinant; tags: His (pET28a); chain copies: 3; label: biotin; blunt. For orientation: A gel shift assay detects complexes by their altered migration in electrophoresis.

The target of data set [2] is T1, ZmHSF20. As to the kind of experiment: EMSA; EMSA/Gel-Shift buffer (Beyotime GS009 kit), 4 °C, 1 h; salt and pH not stated. The conditions noted are these: protein: recombinant; tags: His (pET28a); chain copies: 3; label: biotin; 5' overhang 1 nt on strand 1 as printed (reverse strand lacks the final C).

T1 sequence (K7U5Y9 entry or part of it): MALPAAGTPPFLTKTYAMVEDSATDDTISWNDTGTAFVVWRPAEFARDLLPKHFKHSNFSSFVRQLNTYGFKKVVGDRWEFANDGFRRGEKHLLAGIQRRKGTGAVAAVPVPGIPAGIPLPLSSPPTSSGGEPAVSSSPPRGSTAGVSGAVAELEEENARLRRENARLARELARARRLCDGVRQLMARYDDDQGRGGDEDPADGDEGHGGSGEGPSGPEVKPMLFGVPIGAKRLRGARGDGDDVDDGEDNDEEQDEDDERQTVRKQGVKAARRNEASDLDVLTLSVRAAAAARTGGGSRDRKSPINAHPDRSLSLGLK

B1: ZmCesA2-P2 probe (dsDNA)
DNA 1: ATTTACTACTGAAATTTATAAGGATTTGCA
DNA 2: TGCAAATCCTTATAAATTTCAGTAGTAAAT
As to B1, the binding result with ZmHSF20 [1] is listed as “binds”.

B2: ZmHSF4-P1 probe (dsDNA)
DNA 1: GCCTTCCAGAACCTTCCTTTCCCGAAATAG
DNA 2: CTATTTCGGGAAAGGAAGGTTCTGGAAGG
For the molecule B2, in the data set with ZmHSF20 [2], the binding result was “binds”.
